Assay results taken from the supplement of paper PMC11246515.
± gives the standard deviation of the averaged measurements.

Test: total protein half-life in vivo (active degradation + dilution); higher = more stable protein
[1] = E. coli NCM3722 delta-clpP, growth: N-lim chemostat, doubling time 6 h
[2] = E. coli NCM3722 delta-smpB, growth: N-lim chemostat, doubling time 6 h
[3] = wild type E. coli NCM3722, growth: C-lim chemostat, doubling time 3 h
[4] = wild type E. coli NCM3722, growth: C-lim chemostat, doubling time 6 h
[5] = wild type E. coli NCM3722, growth: C-lim chemostat, doubling time 12 h
[6] = wild type E. coli NCM3722, growth: N-lim chemostat, doubling time 12 h
[7] = E. coli NCM3722 delta-clpP delta-lon delta-hslV, growth: N-lim chemostat, doubling time 6 h
[8] = E. coli NCM3722 delta-lon, growth: N-lim chemostat, doubling time 6 h
[9] = wild type E. coli NCM3722, growth: N-lim chemostat, doubling time 6 h
[10] = wild type E. coli NCM3722, growth: P-lim chemostat, doubling time 12 h
[11] = E. coli NCM3722 delta-hslV, growth: N-lim chemostat, doubling time 6 h
[12] = wild type E. coli NCM3722, growth: P-lim chemostat, doubling time 6 h

Row | Sequence | total protein half-life in vivo [1] [h] | total protein half-life in vivo [2] [h] | total protein half-life in vivo [3] [h] | total protein half-life in vivo [4] [h] | total protein half-life in vivo [5] [h] | total protein half-life in vivo [6] [h] | total protein half-life in vivo [7] [h] | total protein half-life in vivo [8] [h] | total protein half-life in vivo [9] [h] | total protein half-life in vivo [10] [h] | total protein half-life in vivo [11] [h] | total protein half-life in vivo [12] [h]
1 | MNALLSNPFKERLRKGEVQIGLWLSSTTAYMAEIAATSGYDWLLIDGEHAPNTIQDLYHQLQAVAPYASQPVIRPVEGSKPLIKQVLDIGAQTLLIPMVDTAEQARQVVSATRYPPYGERGVGASVARAARWGRIENYMAQVNDSLCLLVQVESKTALDNLDEILDVEGIDGVFIGPADLSASLGYPDNAGHPEVQRIIETSIRRIRAAGKAAGFLAVAPDMAQQCLAWGANFVAVGVDTMLYSDALDQRLAMFKSGKNGPRIKGSY | 2.69 ± 0.27 | 2.17 | 2.74 | 4.08 | 6.62 ± 0.94 | 3.25 |  |  |  |  |  | 
2 | MYDYIIVGSGLFGAVCANELKKLNKKVLVIEKRNHIGGNAYTEDCEGIQIHKYGAHIFHTNDKYIWDYVNDLVEFNRFTNSPLAIYKDKLFNLPFNMNTFHQMWGVKDPQEAQNIINAQKKKYGDKVPENLEEQAISLVGEDLYQALIKGYTEKQWGRSAKELPAFIIKRIPVRFTFDNNYFSDRYQGIPVGGYTKLIEKMLEGVDVKLGIDFLKDKDSLASKAHRIIYTGPIDQYFDYRFGALEYRSLKFETERHEFPNFQGNAVINFTDANVPYTRIIEHKHFDYVETKHTVVTKEYPLEWKVGDEPYYPVNDNKNMELFKKYRELASREDKVIFGGRLAEYKYYDMHQVISAALYQVKNIMSTD | 3.11 | 2.83 ± 0.48 |  |  |  |  | 6.0745 ± 0.0011 | 4.59 ± 0.33 | 3.52 | 11.8 |  | 
3 | MSHLDNGFRSLTLQRFPATDDVNPLQAWEAADEYLLQQLDDTEIRGPVLILNDAFGALSCALAEHKPYSIGDSYISELATRENLRLNGIDESSVKFLDSTADYPQQPGVVLIKVPKTLALLEQQLRALRKVVTSDTRIIAGAKARDIHTSTLELFEKVLGPTTTTLAWKKARLINCTFNEPQLADAPQTVSWKLEGTDWTIHNHANVFSRTGLDIGARFFMQHLPENLEGEIVDLGCGNGVIGLTLLDKNPQAKVVFVDESPMAVASSRLNVETNMPEALDRCEFMINNALSGVEPFRFNAVLCNPPFHQQHALTDNVAWEMFHHARRCLKINGELYIVANRHLDYFHKLKKIFGNCTTIATNNKFVVLKAVKLGRRR | 5.19 ± 0.25 | 4.7 ± 0.66 | 3.05 ± 0.51 | 5.87 ± 0.088 | 11.9 ± 1.5 | 8.16 ± 1.4 | 5.55 ± 0.53 | 5.64 ± 0.14 | 5.175 ± 0.041 |  | 5.29 ± 0.23 | 5.7
4 | MSKVTPQPKIGFVSLGCPKNLVDSERILTELRTEGYDVVPSYDDADMVIVNTCGFIDSAVQESLEAIGEALNENGKVIVTGCLGAKEDQIREVHPKVLEITGPHSYEQVLEHVHHYVPKPKHNPFLSLVPEQGVKLTPRHYAYLKISEGCNHRCTFCIIPSMRGDLVSRPIGEVLSEAKRLVDAGVKEILVISQDTSAYGVDVKHRTGFHNGEPVKTSMVSLCEQLSKLGIWTRLHYVYPYPHVDDVIPLMAEGKILPYLDIPLQHASPRILKLMKRPGSVDRQLARIKQWREICPELTLRSTFIVGFPGETEEDFQMLLDFLKEARLDRVGCFKYSPVEGADANALPDQVPEEVKEERWNRFMQLQQQISAERLQEKVGREILVIIDEVDEEGAIGRSMADAPEIDGAVYLNGETNVKPGDILRVKVEHADEYDLWGSRV [P0AEI4] | 2.28 ± 0.062 | 2.94 ± 0.053 | 2.36 ± 0.54 | 4.39 ± 0.39 | 7.02 ± 1.1 | 5.31 ± 0.15 | 4.5 ± 0.2 | 4.08 ± 0.84 | 3.47 ± 0.46 | 6.68 ± 0.64 | 3.6 ± 0.089 | 4.37 ± 0.28
5 | MSDDNSHSSDTISNKKGFFSLLLSQLFHGEPKNRDELLALIRDSGQNDLIDEDTRDMLEGVMDIADQRVRDIMIPRSQMITLKRNQTLDECLDVIIESAHSRFPVISEDKDHIEGILMAKDLLPFMRSDAEAFSMDKVLRQAVVVPESKRVDRMLKEFRSQRYHMAIVIDEFGGVSGLVTIEDILELIVGEIEDEYDEEDDIDFRQLSRHTWTVRALASIEDFNEAFGTHFSDEEVDTIGGLVMQAFGHLPARGETIDIDGYQFKVAMADSRRIIQVHVKIPDDSPQPKLDE [P0AE78] | 4.83 ± 0.09 | 4.73 ± 0.13 | 2.91 ± 0.18 | 5.83 ± 0.67 | 10 ± 0.62 | 8.26 ± 0.13 | 5.6 ± 0.81 | 5.54 ± 0.81 | 4.6 ± 0.091 | 9.77 ± 1.1 | 5.25 ± 0.99 | 5.28 ± 0.17
6 | MSEAEARPTNFIRQIIDEDLASGKHTTVHTRFPPEPNGYLHIGHAKSICLNFGIAQDYKGQCNLRFDDTNPVKEDIEYVESIKNDVEWLGFHWSGNVRYSSDYFDQLHAYAIELINKGLAYVDELTPEQIREYRGTLTQPGKNSPYRDRSVEENLALFEKMRAGGFEEGKACLRAKIDMASPFIVMRDPVLYRIKFAEHHQTGNKWCIYPMYDFTHCISDALEGITHSLCTLEFQDNRRLYDWVLDNITIPVHPRQYEFSRLNLEYTVMSKRKLNLLVTDKHVEGWDDPRMPTISGLRRRGYTAASIREFCKRIGVTKQDNTIEMASLESCIREDLNENAPRAMAVIDPVKLVIENYQGEGEMVTMPNHPNKPEMGSRQVPFSGEIWIDRADFREEANKQYKRLVLGKEVRLRNAYVIKAERVEKDAEGNITTIFCTYDADTLSKDPADGRKVKGVIHWVSAAHALPVEIRLYDRLFSVPNPGAADDFLSVINPESLVIKQGFAEPSLKDAVAGKAFQFEREGYFCLDSRHSTAEKPVFNRTVGLRDTWAKVGE | 5.11 ± 0.2 | 4.92 ± 0.16 | 3.11 ± 0.31 | 6.39 ± 0.22 | 11.47 ± 0.028 | 9.02 ± 0.47 | 5.89 ± 0.95 | 5.31 ± 0.48 | 5.25 ± 0.2 | 12.1 ± 0.73 | 4.97 ± 0.059 | 5.959 ± 0.047
7 | MSDTNYAVIYDLHSHTTASDGCLTPEALVHRAVEMRVGTLAITDHDTTAAIAPAREEISRSGLALNLIPGVEISTVWENHEIHIVGLNIDITHPLMCEFLAQQTERRNQRAQLIAERLEKAQIPGALEGAQRLAQGGAVTRGHFARFLVECGKASSMADVFKKYLARGKTGYVPPQWCTIEQAIDVIHHSGGKAVLAHPGRYNLSAKWLKRLVAHFAEHHGDAMEVAQCQQSPNERTQLAALARQHHLWASQGSDFHQPCPWIELGRKLWLPAGVEGVWQLWEQPQNTTEREL | 2.69 ± 0.6 | 1.76 ± 0.21 | 1.42 ± 0.78 | 3.06 | 5.96 | 2.55 ± 0.59 | 4.2 ± 0.46 | 4.05 ± 1.8 | 2.24 ± 0.19 | 4.57 ± 0.45 | 2 | 2.72
